Assay results from patent US20250376539A1 (KIRA PHARMACEUTICALS SUZHOU, published 2025).
Substitutions are numbered along the chain they refer to.

B1: 3.2 H2-10 (a representative pH dependent 3.2 comprising a histidine mutation in the heavy chain CDR2) (antibody, V domains shown)
VH: EVQLLESGGGLVQPGGSLRLSCAASGFTFRHYAMSWVRQAPGKGLEWVSLISGSGASTHYADSVKGRFTISRDNSENMLYLQMNSLRAEDTAVYYCAKDSLAVAGSEYFQHWGQGTLVTVSS
VL: SYVLTQAPSVSVAPGQTARITCGGNYFGGKSVHWYQQRPGQAPVLVVYDDSDRPSGIPERFSGSKSGNTATLAISRVEAGDEAAYYCQVYDTSSDHWVFGGGTKLTVL
B2: anti-C2 antibody 149.46 (antibody, IgG4, V domains shown)
VH: QVQLQQSGPGLVKPSQPLSLTCAISGDSVSSNSATWSWIRQSPSRGLEWLGRTYYRSKWYHDYAVFVKSRMTINPDTSKNQFSLQLNSVTPEDTAVYYCARGGMPASDIPHFDNWGQGILVTVSS
VL: SYELTQPPSLSVSPGQTASITCSGHKLGDKYACWYQQKPGQSPVLVIYQDNKRPSGIPERFSGSNSGNTATLTISGTQALDEADYYCQAWDSITYVFGTGTKVTVL
notes: Recombinant

Assays:
[1] = target: T1, recombinant human complement C2 (NP_000054.2), C-terminal 6His-tag, made in house (CHO cell expression) (human, UniProt P06681 21-752); assay: BLI (Gator); ratio of dissociation at pH 5.8 to pH 7.4
T1 construct: a linker before the tag is not described; also called human C2; Human C2
T1 sequence: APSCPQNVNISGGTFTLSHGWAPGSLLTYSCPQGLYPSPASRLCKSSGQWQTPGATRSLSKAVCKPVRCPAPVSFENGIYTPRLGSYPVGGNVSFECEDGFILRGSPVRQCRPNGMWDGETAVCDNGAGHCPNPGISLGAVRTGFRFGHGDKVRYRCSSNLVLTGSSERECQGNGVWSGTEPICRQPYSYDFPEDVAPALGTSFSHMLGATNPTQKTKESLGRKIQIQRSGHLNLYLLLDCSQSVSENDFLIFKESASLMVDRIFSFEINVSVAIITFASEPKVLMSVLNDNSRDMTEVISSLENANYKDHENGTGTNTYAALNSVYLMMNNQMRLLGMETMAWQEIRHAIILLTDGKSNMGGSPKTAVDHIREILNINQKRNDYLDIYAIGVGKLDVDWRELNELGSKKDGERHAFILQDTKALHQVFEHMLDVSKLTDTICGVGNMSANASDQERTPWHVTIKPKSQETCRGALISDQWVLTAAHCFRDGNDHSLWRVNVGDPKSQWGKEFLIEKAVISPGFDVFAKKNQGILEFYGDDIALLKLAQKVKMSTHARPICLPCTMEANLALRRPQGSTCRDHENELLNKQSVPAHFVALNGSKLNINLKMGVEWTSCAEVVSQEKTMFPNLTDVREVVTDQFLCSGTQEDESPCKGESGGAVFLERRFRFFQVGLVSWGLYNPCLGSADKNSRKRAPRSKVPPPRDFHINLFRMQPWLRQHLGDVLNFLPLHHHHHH
Procedure: (§1) The histidine mutant constructs in Table 4 were tested for their pH-dependent dissociation from human C2. Probe-immobilized anti-C2 antibodies were incubated with C2 at pH 7.4 for 600s, followed by a 600s dissociation period in K Buffer at pH 7.4 or pH 5.8. The data were processed and analyzed by the Gator evaluation software.
(§2) Non-fusion mAb were used for comparison.

[2] = target: T2, recombinant cynomolgus (cyno) complement C2 (XP_005553508.1), C-terminal 6His-tag, made in house (CHO cell … (cynomolgus monkey (Macaca fascicularis), UniProt P06681 21-752 (human entry))); assay: as above
T2 construct: also called cyno C2; Cyno C2
T2 chain: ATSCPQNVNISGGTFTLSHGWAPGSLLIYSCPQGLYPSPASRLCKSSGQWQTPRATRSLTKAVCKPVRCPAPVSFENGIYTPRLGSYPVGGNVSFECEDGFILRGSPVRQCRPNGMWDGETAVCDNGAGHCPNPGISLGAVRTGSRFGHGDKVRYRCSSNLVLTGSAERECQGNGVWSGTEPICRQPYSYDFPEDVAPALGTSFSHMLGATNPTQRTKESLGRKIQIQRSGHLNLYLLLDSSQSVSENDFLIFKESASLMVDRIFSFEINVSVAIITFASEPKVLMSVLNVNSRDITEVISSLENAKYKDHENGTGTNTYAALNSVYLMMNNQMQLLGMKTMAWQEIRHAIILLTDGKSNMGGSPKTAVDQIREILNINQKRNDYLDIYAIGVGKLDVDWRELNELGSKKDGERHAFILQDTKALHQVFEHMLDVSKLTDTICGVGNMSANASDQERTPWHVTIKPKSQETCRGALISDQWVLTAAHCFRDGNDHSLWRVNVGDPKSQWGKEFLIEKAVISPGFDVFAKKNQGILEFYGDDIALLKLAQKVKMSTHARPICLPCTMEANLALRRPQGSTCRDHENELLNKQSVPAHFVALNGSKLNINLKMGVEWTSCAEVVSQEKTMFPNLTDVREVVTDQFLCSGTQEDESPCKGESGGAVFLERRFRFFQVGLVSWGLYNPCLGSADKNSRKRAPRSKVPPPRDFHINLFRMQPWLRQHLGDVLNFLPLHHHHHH
Procedure: as §1, §2

[3] = target: T2, recombinant cynomolgus (cyno) …; assay: binding kinetics (BLI presumed)
[4] = target: T1, recombinant human complement C2 …; assay: BLI (Gator), antibody on probe; 600 s association at pH 7.4, 600 s dissociation at pH 5.8
Procedure: as §1, §2

[5] = target: T2, recombinant cynomolgus (cyno) …; assay: as above
Procedure: as §1, §2

[6] = target: T1, recombinant human complement C2 …; assay: binding kinetics, neutral pH (BLI presumed)
[7] = target: T1, recombinant human complement C2 …; assay: BLI (Gator), antibody on probe; 600 s association at pH 7.4, 600 s dissociation at pH 7.4
Procedure: as §1, §2

[8] = target: T2, recombinant cynomolgus (cyno) …; assay: as above
Procedure: as §1, §2

[9] = target: T3, recombinant cyno C2a, C-terminal 6His-tag, made in house (CHO cell expression) (cynomolgus monkey, UniProt P06681 244-752 (human entry)); assay: ELISA
T3 chain: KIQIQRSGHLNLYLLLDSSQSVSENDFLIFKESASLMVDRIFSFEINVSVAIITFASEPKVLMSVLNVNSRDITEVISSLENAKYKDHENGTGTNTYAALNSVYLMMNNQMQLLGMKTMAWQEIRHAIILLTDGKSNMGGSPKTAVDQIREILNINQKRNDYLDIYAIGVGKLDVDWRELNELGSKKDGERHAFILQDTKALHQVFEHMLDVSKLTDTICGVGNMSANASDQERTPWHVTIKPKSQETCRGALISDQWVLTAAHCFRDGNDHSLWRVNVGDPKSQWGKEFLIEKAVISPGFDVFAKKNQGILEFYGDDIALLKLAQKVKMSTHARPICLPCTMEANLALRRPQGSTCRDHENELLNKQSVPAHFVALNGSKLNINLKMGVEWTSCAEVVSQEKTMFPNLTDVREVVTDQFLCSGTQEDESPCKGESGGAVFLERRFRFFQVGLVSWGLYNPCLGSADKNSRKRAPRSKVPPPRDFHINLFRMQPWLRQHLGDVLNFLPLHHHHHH

[10] = target: T4, recombinant human C2a, C-terminal 6His-tag, made in house (CHO cell expression) (human, UniProt P06681 244-752); assay: ELISA
T4 sequence: T3 chain with S18C, V68D, I73M, K84N, Q112R, K117E, Q148H

[11] = target: T1, recombinant human complement C2 …; assay: ELISA
[12] = target: T2, recombinant cynomolgus (cyno) …; assay: ELISA on cyno C2, OD450nm against log Ab conc. (nmol/L)

Binder | Fold dissociation pH 5.8/pH 7.4 [1] [fold] | Fold dissociation pH 5.8/pH 7.4 [2] [fold] | Kd [3] [nM] | koff [3] [s⁻¹] | kon [3] [M⁻¹ s⁻¹] | Dissociation (%) pH 5.8 [4] [%] | Dissociation (%) pH 5.8 [5] [%] | Kd [6] [nM] | koff [6] [s⁻¹] | kon [6] [M⁻¹ s⁻¹] | Dissociation (%) pH 7.4 [7] [%] | Dissociation (%) pH 7.4 [8] [%] | EC50 [9] [nM] | EC50 [10] [nM] | EC50 [11] [nM] | binding result [12]
B1 | 8.2 | 7.53 | 0.222 | 9.84e-05 | 442000 | 56.7 | 62.9 | 0.172 | 6.05e-05 | 353000 | 6.91 | 8.35 | – | – | – | –
B2 | – | – | – | – | – | – | – | – | – | – | – | – | 0.042 | 0.0457 | 0.165 | binds
